Source: patent US20220226493A1

B1: CK6-SET0207 (CK6 with Fc modifications D265C H435A) (antibody, V domains shown)
VH: QVQLVQSGAAVKKPGESLKISCKGSGYRFTSYWIGWVRQMPGKGLEWMGIIYPGDSDTRYSPSFQGQVTISAGKSISTAYLQWSSLKASDTAMYYCARHGRGYNGYEGAFDIWGQGTMVTVSS
VL: AIQLTQSPSSLSASVGDRVTITCRASQGISSALAWYQQKPGKAPKLLIYDASSLESGVPSRFSGSGSGTDFTLTISSLQPEDFATYYCQQFNSYPLTFGGGTKVEIK
B2: CK6-D4 (anti-CD117 antibody CK6 with Fc modification S239C conjugated to calicheamicin) (antibody, DAR 1.72, V domains shown)
VH: QVQLVQSGAAVKKPGESLKISCKGSGYRFTSYWIGWVRQMPGKGLEWMGIIYPGDSDTRYSPSFQGQVTISAGKSISTAYLQWSSLKASDTAMYYCARHGRGYNGYEGAFDIWGQGTMVTVSS
VL: AIQLTQSPSSLSASVGDRVTITCRASQGISSALAWYQQKPGKAPKLLIYDASSLESGVPSRFSGSGSGTDFTLTISSLQPEDFATYYCQQFNSYPLTFGGGTKVEIK
B3: CK6-DM (anti-CD117 antibody CK6 with Fc modification S239C conjugated to duocarmycin) (antibody, DAR 1.65, V domains shown)
VH: QVQLVQSGAAVKKPGESLKISCKGSGYRFTSYWIGWVRQMPGKGLEWMGIIYPGDSDTRYSPSFQGQVTISAGKSISTAYLQWSSLKASDTAMYYCARHGRGYNGYEGAFDIWGQGTMVTVSS
VL: AIQLTQSPSSLSASVGDRVTITCRASQGISSALAWYQQKPGKAPKLLIYDASSLESGVPSRFSGSGSGTDFTLTISSLQPEDFATYYCQQFNSYPLTFGGGTKVEIK
B4: CK6-PNU (anti-CD117 antibody CK6 with Fc modification S239C conjugated to PNU) (antibody, DAR 1.4, V domains shown)
VH: QVQLVQSGAAVKKPGESLKISCKGSGYRFTSYWIGWVRQMPGKGLEWMGIIYPGDSDTRYSPSFQGQVTISAGKSISTAYLQWSSLKASDTAMYYCARHGRGYNGYEGAFDIWGQGTMVTVSS
VL: AIQLTQSPSSLSASVGDRVTITCRASQGISSALAWYQQKPGKAPKLLIYDASSLESGVPSRFSGSGSGTDFTLTISSLQPEDFATYYCQQFNSYPLTFGGGTKVEIK
B5: CK6-PBD (anti-CD117 antibody CK6 with Fc modification S239C conjugated to PBD) (antibody, DAR 1.7, V domains shown)
VH: QVQLVQSGAAVKKPGESLKISCKGSGYRFTSYWIGWVRQMPGKGLEWMGIIYPGDSDTRYSPSFQGQVTISAGKSISTAYLQWSSLKASDTAMYYCARHGRGYNGYEGAFDIWGQGTMVTVSS
VL: AIQLTQSPSSLSASVGDRVTITCRASQGISSALAWYQQKPGKAPKLLIYDASSLESGVPSRFSGSGSGTDFTLTISSLQPEDFATYYCQQFNSYPLTFGGGTKVEIK

The binders below were run against CD117 on Kasumi-1 cells, P10721 (assay: cell-based or functional assay).
B1 showed a % Efficacy (in vitro Kasumi cell killing assay, CellTiter-Glo) of 0%. Work on B2 yielded a % Efficacy (in vitro Kasumi cell killing assay, CellTiter-Glo) of 0%. Binder B3 has a % Efficacy (in vitro Kasumi cell killing assay, CellTiter-Glo) of 0%. For B4, the % Efficacy (in vitro Kasumi cell killing assay, CellTiter-Glo) was 85.7%. B5 gave a % Efficacy (in vitro Kasumi cell killing assay, CellTiter-Glo) of 60.7%.
